Results as given in the supplement of paper PMC10126150.
± gives the standard deviation of the averaged measurements.

System: ATP
Test: switch fluorescence ratio, 500 uM ATP over buffer (Cy3 cluster intensity, sum of 5 cycles each) (fold (ratio)); higher = stronger signal-on switching upon ATP binding; sequences stand for … in TCGTCGGCAGCGTCAGATGTGTATAAGAGACAGTTTTTTTTTTTTTTTTTTTTTTTTT…TC
Settings: aptamer strand: ATP DNA aptamer (quencher-CACCTGGGGGAGTATTGCGGAGGAAGG + anchor), 100 nM annealed; ATP concentration: 500 uM
Outline: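 Five buffer/ATP imaging cycles were run on Cy3-labelled switching-strand clusters on a modified Illumina MiSeq flow-cell, with NaOH stripping and re-annealing between cycles. In each cycle, clusters annealed to 100 nM quencher-labelled ATP aptamer were imaged in selection buffer, then after 15 min with 500 uM ATP at 22 °C. Per cluster, the fluorescence ratio is summed target-cycle over summed buffer-cycle Cy3 intensity, averaged per switch-domain sequence. Only clusters within 100-1000 RFU were kept.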
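Also: ATP exposure 15 min at 22 °C before imaging.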

Sequence | switch fluorescence ratio
TCATACTTTT | 1.01 ± 0.026
TCATAGACGG | 0.987 ± 0.021
TCATAGTATG | 0.982 ± 0.04
TCATATAATA | 1.01 ± 0.018
TCATCATTTT | 0.996 ± 0.0019
TCATCCGTTT | 1.13 ± 0.15
TCATCGTGCC | 0.99 ± 0.032
TCATGAGCCA | 1.04 ± 0.025
TCATGCAACG | 1.06 ± 0.06
TCATGCAGAT | 1.02 ± 0.056
TCATGGCACG | 1.02 ± 0.019
TCATGGGCGC | 1.01 ± 0.014
TCATGGGGCG | 0.993 ± 0.012
TCATGTACGT | 1.06 ± 0.028
TCATGTTATG | 0.971 ± 0.065
TCATGTTGCT | 1.01 ± 0.025
TCATGTTGGA | 0.977 ± 0.02
TCATTAAGTT | 1.08 ± 0.094
TCATTAGCCT | 1.08 ± 0.019
TCATTAGCTT | 0.991 ± 0.012
TCATTCTTTA | 1.01 ± 0.019
TCATTGATTT | 0.978 ± 0.022
TCATTGGACT | 0.98 ± 0.023
TCATTGTAAC | 1.06 ± 0.023
TCATTGTTTT | 1.01 ± 0.019

Sequence | switch fluorescence ratio
TCATTTATAT | 0.98 ± 0.047
TCATTTCAGC | 1.03 ± 0.011
TCATTTCAGG | 1.01 ± 0.012
TCATTTGGAT | 1 ± 0.023
TCATTTGGGG | 0.975 ± 0.024
TCATTTTAGT | 0.99 ± 0.026
TCATTTTCGG | 0.986 ± 0.025
TCATTTTGAA | 1.01 ± 0.0012
TCCAAAATTT | 0.976 ± 0.013
TCCAACGGGT | 1.03 ± 0.059
TCCAAGACGA | 1.34 ± 0.23
TCCAAGAGGG | 1.01 ± 0.031
TCCAAGGCTT | 1.038 ± 0.0014
TCCAATTTGA | 0.998 ± 0.012
TCCACCGA | 1.04 ± 0.017
TCCACGGTCT | 1.0273 ± 0.00046
TCCAGATCAT | 0.993 ± 0.018
TCCAGATGGA | 0.977 ± 0.037
TCCAGATTCT | 0.9828 ± 0.0086
TCCAGGAGGG | 1.025 ± 0.0075
TCCAGGAGTG | 1.15 ± 0.019
TCCAGGGAAT | 1.04 ± 0.029
TCCAGGGGCA | 1.67 ± 0.1
TCCAGTAATA | 1.17 ± 0.19
TCCAGTAGTT | 0.982 ± 0.024

Sequence | switch fluorescence ratio
TCCATAGGGG | 1.53 ± 0.88
TCCATCGCTT | 1.6 ± 0.79
TCCATCTGGG | 1.01 ± 0.032
TCCATCTTTT | 0.999 ± 0.014
TCCATGACCC | 1.01 ± 0.015
TCCATGACGC | 1.099 ± 0.0088
TCCATGATTG | 0.973 ± 0.037
TCCATTCATA | 1.01 ± 0.023
TCCATTTGGA | 1.02 ± 0.052
TCCCAACGGG | 1.011 ± 0.0036
TCCCCAATTT | 1.13 ± 0.12
TCCCCAGCAC | 3.1 ± 2.7
TCCCCCTGTT | 1.01 ± 0.013
TCCCCGGGCA | 0.995 ± 0.04
TCCCCGGTCA | 1.09 ± 0.15
TCCCCTCGGC | 1.08 ± 0.046
TCCCCTTTTT | 1.04 ± 0.015
TCCCGATTTC | 1.07 ± 0.024
TCCCGCTTGT | 1.17 ± 0.028
TCCCGTTTGA | 1.01 ± 0.016
TCCCTCAGGG | 1.46 ± 0.078
TCCCTGTTTT | 0.991 ± 0.016
TCCGAAGGGT | 0.991 ± 0.045
TCCGAAGGTA | 1.07 ± 0.025
TCCGACGGTT | 3.31 ± 0.46

Sequence | switch fluorescence ratio
TCCGATTTAT | 0.989 ± 0.026
TCCGCGGGGA | 1.52 ± 0.59
TCCGCGGGTT | 1.14 ± 0.2
TCCGCTTGA | 1.58 ± 0.047
TCCGGCGTGC | 1.13 ± 0.23
TCCGGGGCAG | 1.262 ± 0.0072
TCCGGGGGGG | 1.06 ± 0.094
TCCGGGGGTG | 1.09 ± 0.13
TCCGGTGTTT | 1.081 ± 0.0036
TCCGGTTGTC | 1.11 ± 0.036
TCCGTCACTA | 1.438 ± 0.0074
TCCTACTACG | 1.08 ± 0.026
TCCTAGGCGT | 1.06 ± 0.12
TCCTAGGGGT | 2.44 ± 1.2
TCCTAGGTCT | 1.009 ± 0.0029
TCCTAGTTGA | 1.024 ± 0.0012
TCCTATACTA | 1.035 ± 0.0094
TCCTATTGTG | 1.03 ± 0.042
TCCTCGAGTA | 1.27 ± 0.027
TCCTGAGTTA | 0.996 ± 0.011
TCCTGCAGGA | 1.03 ± 0.014
TCCTGCCTTA | 1.0991 ± 0.00051
TCCTGCGGGG | 1.12 ± 0.12
TCCTGGAGGA | 0.989 ± 0.05
TCCTGGGCGG | 1.077 ± 0.0028

Sequence | switch fluorescence ratio
TCCTGGGGGG | 1.04 ± 0.046
TCCTGGGTGT | 2.23 ± 0.12
TCCTTATTGG | 1 ± 0.0068
TCCTTCAAAG | 1.08 ± 0.085
TCCTTCGGCG | 1.3 ± 0.078
TCCTTCTCTT | 1.05 ± 0.021
TCCTTTAAGG | 1.025 ± 0.003
TCCTTTAATC | 1.98 ± 1.4
TCCTTTACTG | 0.9779 ± 0.0072
TCCTTTAGCC | 1.23 ± 0.015
TCCTTTGGTC | 0.987 ± 0.022
TCGAAAACAG | 0.961 ± 0.0078
TCGAAAGTGT | 1 ± 0.025
TCGAAATTCG | 1.02 ± 0.019
TCGAACTGAT | 1.02 ± 0.03
TCGAAGGATA | 0.992 ± 0.011
TCGAAGGGGG | 1.1 ± 0.16
TCGAATGGCT | 1 ± 0.044
TCGAATGT | 1.01 ± 0.012
TCGAATGTGC | 0.989 ± 0.022
TCGACACTGA | 1.058 ± 0.0022
TCGACCTAAT | 1.077 ± 0.01
TCGACGATTC | 1.52 ± 0.14
TCGACTCAGG | 1.05 ± 0.028
TCGACTGAGG | 1.03 ± 0.031

Sequence | switch fluorescence ratio
TCGACTGTTT | 1.03 ± 0.018
TCGAGAATGT | 0.984 ± 0.014
TCGAGAGGGA | 1 ± 0.047
TCGAGATAGA | 1.1 ± 0.11
TCGAGATTAG | 0.9942 ± 0.0086
TCGAGCATCA | 1.143 ± 0.01
TCGAGCTTGT | 1 ± 0.024
TCGAGGAATC | 1.075 ± 0.0094
TCGAGGGCGG | 0.98 ± 0.032
TCGAGGGGGC | 1.07 ± 0.17
TCGAGTAGGG | 0.995 ± 0.016
TCGAGTATCT | 0.999 ± 0.019
TCGAGTATTC | 1.04 ± 0.013
TCGAGTTGCA | 1 ± 0.033
TCGAGTTTGG | 1.01 ± 0.022
TCGATACGAT | 0.994 ± 0.018
TCGATAGCTG | 0.935 ± 0.046
TCGATAGGGG | 0.98 ± 0.054
TCGATATTGG | 1.02 ± 0.022
TCGATCCCGA | 1.017 ± 0.0072
TCGATCGGGT | 0.991 ± 0.035
TCGATGGCGC | 1.02 ± 0.023
TCGATGGGGG | 0.942 ± 0.013
TCGATTCGGT | 1.02 ± 0.026
TCGATTGTGG | 1.02 ± 0.03

Sequence | switch fluorescence ratio
TCGCAAAGGT | 1.34 ± 0.036
TCGCACGTAT | 1.03 ± 0.043
TCGCCAATTG | 1.0649 ± 0.00052
TCGCCTGGCG | 0.972 ± 0.034
TCGCGGCAAT | 3.06 ± 2.3
TCGCGGGAAG | 1.015 ± 0.0054
TCGCTAATTG | 1.04 ± 0.022
TCGCTACCGA | 1.09 ± 0.04
TCGCTAGATG | 1.4 ± 0.52
TCGCTGTTGT | 1.01 ± 0.0019
TCGCTTGGCC | 1.03 ± 0.04
TCGGAAAGGG | 0.9961 ± 0.0049
TCGGAAGATT | 1.01 ± 0.034
TCGGAAGGAC | 1.141 ± 0.011
TCGGAAGGGC | 1.017 ± 0.0027
TCGGAAGTCA | 1.012 ± 0.0042
TCGGAATTTT | 1.03 ± 0.026
TCGGACAGGC | 1.03 ± 0.035
TCGGACGTAC | 1.98 ± 0.16
TCGGACTTTT | 1.04 ± 0.012
TCGGAGGGGC | 1.03 ± 0.013
TCGGAGTCTG | 1.04 ± 0.056
TCGGATGTGG | 1.01 ± 0.056
TCGGATTATG | 0.9669 ± 0.0066
TCGGCAAGTT | 1.2 ± 0.33

Sequence | switch fluorescence ratio
TCGGCACGGA | 0.999 ± 0.031
TCGGCCAGTT | 1.01 ± 0.037
TCGGCGGGAG | 1.01 ± 0.042
TCGGCGGGGA | 1.05 ± 0.14
TCGGCGTCAG | 0.9817 ± 0.0041
TCGGCTGCGT | 1.03 ± 0.018
TCGGCTGTTG | 1 ± 0.028
TCGGCTTTTT | 0.999 ± 0.025
TCGGGAAAAA | 0.991 ± 0.032
TCGGGAATCG | 0.983 ± 0.027
TCGGGAGGGT | 1.02 ± 0.023
TCGGGATAAG | 1.01 ± 0.018
TCGGGATAGT | 1.03 ± 0.039
TCGGGCAACG | 1 ± 0.041
TCGGGCCAGG | 1.1 ± 0.071
TCGGGCTCGC | 0.9639 ± 0.0068
TCGGGCTGGT | 0.977 ± 0.011
TCGGGGAAAG | 1.04 ± 0.082
TCGGGGAAGT | 1.04 ± 0.042
TCGGGGAATA | 1.02 ± 0.014
TCGGGGACGT | 1.062 ± 0.0057
TCGGGGATCA | 0.9752 ± 0.0058
TCGGGGCGAG | 1.02 ± 0.023
TCGGGGCGTG | 1 ± 0.027
TCGGGGCTGT | 0.993 ± 0.026
